Experimental data from patent US20250339569A1, “CARBONIC ANHYDRASE IX LIGANDS” (priority 2021, published 2025).

Experiments:
[1] = molecular target: murine carbonic anhydrase 9 (CAIX) (mouse) (UniProt Q8VHB5); assay: radioligand saturation binding on CHO-msCAIX cells, 8 h at 37 °C, experiment i
[2] = molecular target: murine carbonic anhydrase 9 (CAIX) (mouse) (UniProt Q8VHB5); assay: radioligand saturation binding on CHO-msCAIX cells, 8 h at 37 °C, single experiment

Sequence of murine carbonic anhydrase 9 (CAIX) (mouse) (Q8VHB5 32-437 limits assumed): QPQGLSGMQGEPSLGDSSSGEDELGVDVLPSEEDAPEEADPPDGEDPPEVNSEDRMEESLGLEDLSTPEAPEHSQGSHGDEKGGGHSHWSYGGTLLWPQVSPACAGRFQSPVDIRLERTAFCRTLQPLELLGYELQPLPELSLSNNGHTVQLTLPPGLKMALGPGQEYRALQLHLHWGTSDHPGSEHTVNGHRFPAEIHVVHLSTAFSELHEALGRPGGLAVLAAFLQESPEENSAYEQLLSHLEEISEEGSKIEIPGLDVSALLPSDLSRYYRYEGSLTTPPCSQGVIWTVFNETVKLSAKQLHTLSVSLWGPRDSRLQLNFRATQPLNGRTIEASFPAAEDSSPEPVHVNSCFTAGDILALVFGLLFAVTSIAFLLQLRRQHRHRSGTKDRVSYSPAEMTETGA

## [^111In]In-DPI-4452 (peptide)
[1]
  Bmax: 5.6 fmol/µg prot
  pKd: 7.2 -log10(M)
[2]
  Mean Bmax: 5.6 fmol/µg prot
